# Experimental data from publication PMC8986121.
# Key:
# Glu49 = assay: NMR; conditions: 300 K, not stated (50 mM phosphate buffers), 50 mM phosphate buffers at different pH, micelle-bound
# Glu59 = assay: NMR; conditions: 300 K, not stated (50 mM phosphate buffers), 50 mM phosphate buffers at different pH, micelle-bound
# [1] = L2 peptide free (no L1 or M peptide)
# [2] = L2 peptide in the presence of the GldL TMH1 (L1) and GldM TMH (M) peptides at 1:1:1 molar ratio
protein,measurement,setting,value
KKVMLSIGLLTEALIFALSAFEPVKK,pKa,Glu49; [1],5.54 ± 0.04
same,pKa,Glu49; [2],5.83 ± 0.02
same,pKa,Glu59; [1],5.65 ± 0.13
same,pKa,Glu59; [2],5.83 ± 0.02
